{
  "source": "paper PMC5762878",
  "key": {"[1]": {"molecular_target": "Recombinant flavin reductase (rFlaR), HAT-tagged (Streptococcus pneumoniae (strain WU2))", "assay": "SDS-PAGE with or without β-mercaptoethanol + MALDI-TOF of the bands; HAT-tagged rFlaR purified on Ni-NTA under denaturing conditions; reducing gel: major band 22 kDa, minor 45 kDa; non-reducing gel: 45 kDa major, 22 kDa minor; both bands identified by in-gel digestion and MALDI-TOF and detected by rabbit anti-rFlaR antiserum"}, "[2]": {"molecular_target": "Flavin reductase (FlaR), endogenous in S. pneumoniae WU2 (Streptococcus pneumoniae (endogenous in strain WU2))", "assay": "SDS-PAGE and immunoblot of cell fractions; cytoplasmic and cell-wall fractions of WU2 WT, immunoblotted with rabbit anti-rFlaR antiserum; bands at ~17 kDa and 34 kDa in the cytoplasm, 34 kDa band also in the cell-wall fraction"}},
  "data": [
    {"substance": "Recombinant flavin reductase (rFlaR), HAT-tagged (from UniProt A0ACD7PR00 1-174) (enzyme)", "values": [
      {"measurement": "stoichiometry N", "setting": "[1]", "result": 2}
    ]},
    {"substance": "Flavin reductase (FlaR), endogenous in S. pneumoniae WU2 (from UniProt A0ACD7PR00 1-174) (enzyme)", "values": [
      {"measurement": "stoichiometry N", "setting": "[2]", "result": 2}
    ]}
  ]
}
